Measured values taken from the DeepSol protein solubility set.

Experiment: soluble on expression in E. coli; label from the status in PepcDB or PDB records

Row | Sequence | soluble on expression in E. coli
1 | MKALRSSSRLSRWREWAAPLWVGCNFSAWMRLLIRNRFAVHHSRWHFAVLYTFLSMVNSCLGLWQKIVFGRRVAETVIADPPIFIVGHWRTGTTLLHELLVVDDRHTGPTGYECLAPHHFLLTEWFAPYVEFLVSKHRAMDNMDLSLHHPQEDEFVWCMQGLPSPYLTIAFPNRPPQYEEYLDLEQVAPRELEIWKRTLFRFVQQVYFRRRKTVILKNPTHSFRIKVLLEVFPQAKFIHIVRDPYVVYPSTIHLHKALYRIHGLQQPTFDGLDDKVVSTYVDLYRKLDEGRELVDPTRFYELRYEDLIGDPEGQLRRLYQHLGLGDFECYLPRLRQYLADHADYKTNSYQLTVEQRAIVDEHWGEIIDRYGYDRHTPEPARLRPAVGG | not soluble
2 | MKKRLTESQFQEAIQGLEVGQQTIEIARGVLVDGKPQATFATSLGLTRGAVSQAVHRVWAAFEDKNLPEGYARVTAVLPEHQAYIVRKWEADAKKKQETKR | soluble
3 | MSQPLNVAVVGATGSVGEALVGLLDERDFPLHRLHLLASAESAGQRMGFAESSLRVGDVDSFDFSSVGLAFFAAAAEVSRAHAERARAAGCSVIDLSGALEPSVAPPVMVSVNAERLASQAAPFLLSSPCAVAAELCEVLAPLLATLDCRQLNLTACLSVSSLGREGVKELARQTAELLNARPLEPRLFDRQIAFNLLAQVGAVDAEGHSAIERRIFAEVQALLGERIGPLNVTCIQAPVFFGDSLSVTLQCAEPVDLAAVTRVLDATKGIEWVGEGDYPTVVGDALGQDETYVGRVRAGQADPCQVNLWIVSDNVRKGAALNAVLLGELLIKHYL | soluble
4 | AKKIGLFYGTQTGKTESVAEIIRDEFGNDVVTLHDVSQAEVTDLNDYQYLIIGCPTENIGELQSDWEGLYSELDDVDFNGKLVAYFGTGDQIGYADNFQDAIGILEEKISQRGGKTVGYWSTDGYDFNDSKALRNGKFVGLALDEDNQSDLTDDRIKSWVAQLKSEFGL | soluble
5 | MSLGYDVIFVSGVAKARFRRRMRKLVLCITALLLSGCSREFIEKIYDVDYEPTNRFAKNLAELPGQFQKDTAALDALINSFSGNIEKRWGRRELKIAGKNNYVKYIDNYLSRSEVNFTEGRIIVETVSPIDPKAHLRNAIITTLLTPDDPAHVDLFSSKDIELKGQPFLYQQVLDQDGQPIQWSWRANRYADYLIANHLKVKQVDFKKAYYVEIPMVKDQIDIRGYKYASIVRKASRKYDIPEDLIYAIIKTESSFNPYAVSWANAYGLMQVVPKTAGRDVFKLVKNRSGEPSPEYLFNPENNIDTGTAYFYILKNRYLKEVRHPTSLEYSMISAYNGGTGGVLSTFSSDRQRAMRDLNALQPNQVYWALTKKHPNAEARRYLEKVTKFKKEFNAGEGHHHHHH | not soluble
6 | AHHHHHHGSYLSIGTLLHRPLSSNLCIAYEIATPAIYLSPGYFTTFPATYDEILLIVSTSLAFPYVWV | soluble
7 | GMALQEEFIDVNGTRVFQRKMVTDSNRRSIALFHGYSFTSMDWDKADLFNNYSKIGYNVYAPDYPGFGRSASSEKYGIDRGDLKHAAEFIRDYLKANGVARSVIMGASMGGGMVIMTTLQYPDIVDGIIAVAPAWVESLKGDMKKIRQKTLLVWGSKDHVVPIALSKEYASIISGSRLEIVEGSGHPVYIEKPEEFVRITVDFLRNL | soluble
8 | MGSDKIHHHHHHMSRRLPPLNAVKAFEAAARHLSFTRAAEELFVTQAAVSHQIKALEDFLGLKLFRRKNRSLLLTEEGQSYFLDIKDIFTQLSDATDRLLARSAIGSLTVSMSPSFAIQWLVPRLAKFSEKNPDIDVRIKAVDSEEGSLTDDVDVAIYYGQGSWPGLRADKLRNEVLIPVCSPMLLNGHKPLETPADLKHHTLLHDMSRHDWQAWFRQCGVTDVNVNQGPIFSHSSLVLQAAAHGQGVALGYSVLARPDIKAGRLVVPFQEVLVSKDAYYLVCQQNHAELGKIVAFREWMLDMFAEESRSELLPA | not soluble
9 | SLNIKDEHIDSVCSLLDQLVGNVSFKNLFTGYGLFHKEETMFAIWQNKKLYLRGEGVLAIQLTKLGCEPFTTNELNKRFVLSQYYALSDQILRSNRLCRKLIILSIKQILEQKLECTLRKLNRLKDLPNLTIKHERALIKVGITNVAMLREIGAENALVELKKSGSGATLDFYWKLVCALQNKNSQMLSQAEKERLLKKLNEVWRKNGLKGYRKLDDE | not soluble
10 | MSTVKEAVDVEVPVHTAYNQWTQFEEFPHFMEGVEEVRQLDERHNHWTTQVSGVKREFDTEIVDQLPDERITWRTTTGDTNQKGTVRFQRLDDTHTRVELVMDVDPTGVAEKTGDMLGVIDRRVKGDMQRFKEYIEKRGGESGAWRGRIRPGELEHHHHHH | soluble
11 | MSLSNTGINCPFDCGLCPRHRSHTSLINIVLTNRCNLSCWYCFFYAREGEPIYEPTLEQIRMMLRNAKKEHPIGANAVQFTGGEPTLRDDLIEIIKIAKEEGYDHIQLNTDGIKLAFDPELVKKLREAGVNTLYLSYDGMTPQTNWKNHWEIPLIFENVRKAGGPGIVLVPTLIRNINDHEAGAIINFGLNHLDIVRGVNFQPISLVGRVPRKERQRFRITIAGAIKKIEEQTNGVIAKEDWYPIPIAGHIARFFEAFTGRKYYMTSHFACGAATYVFLDREEKKVIPIPRFIDVDGFVEFLVEKAEEIEKARFKSLAKLKAIGETIFVKFKQFYDEKNAPKGLDVLGLIKNAFVHGTYDALGKFHMNTLFIGMMHFMDEYNYDVERVERCVIHYAMPDGRIVPFCTFNVIPEIYRDKVQRQFSYSWEEWKKLHPDEGHHHHHH | not soluble
12 | KGHLTRLGLEFFDQPAVPLARAFLGQVLVRRLPNGTELRGRIVETEAYLGPEDEAAHSRGGRQTPRNRGMFMKPGTLYVYIIYGMYFCMNISSQGDGACVLLRALEPLEGLETMRQLRSTLRKGTASRVLKDRELCSGPSKLCQALAINKSFDQRDLAQDEAVWLERGPLEPSEPAVVAAARVGVGHAGEWARKPLRFYVRGSPWVSVVDRVAEQDTQA | soluble
13 | MVFSKKPITKYITWAIVTSQIPLPVIADSDNEIQSWIAGTASSISPHLQEGTLEDYAKGKIKALPGQAANHLVNEGIKSAFPEIIFRGGVNLEDGAKYRSSEFDMFIPVQETTSSLLFGQLGFRDHDNSSFDGRTYVNVGMGYRQEVNGWLLGVNTFLDADIRYSHLRGGIGGEVYKDSLAFSGNYYFPLTGWKMSAAHELHDERPAYGFDLRTKGTLPDFPWFSGELTYEQYYGDKVDLLGNGTLSRNPRAAGAALVWNPVPLLEVRAGYRDAGNGGSQAEGGLRVNYSFGTPLHEQLDYRNVGAPSNTTNRRAFVDRNYDIVMAYREQASKIRITAMPVSGLSGTLVTLMATVDSRYPVEKVEWSGDAELLAGLQLQGSLGSGLILPQLPLTATDGQEYSLYLTVTDSRGTRVTSERIPVRVTQDETSFRSWINVINDDVQVEDGNFVINTPLPAGEEGKVIEWHYVRERSEEEWASLKPRHIKYQSDTPGLAFKALGGTERDGHWVERVLVTHIGDDARSLKLHIEASGPDDKHPVKGTVLLQAQSDSIAQKVTSVEVLFTPGTEEANGSVTAPVVGTEMRARTLCVNNTDCTDAFNYQWEISDEMKSWQSVPGATKATWLLPYSLNGESLQNKYIRVRIISDKGNAKGNTATSDAN | not soluble
14 | MGSDKIHHHHHHMKQIKHTFEEKKKMGGKASMWNLWHGCHKWSEGCRHCYVYRTDGKYGKDSSVVTKTEKFGLPLQKKKNGEYKIPSGNLVYTCFTSDFLIEDVDEWRAEAWEMMRIRQDLHFMFITKRIDRLQQCLPPDWGDGYDNVTICCTMENQDRVDYRLPIYKESPIKHKIIICEPLLSQIDFRGELEGWVEQVVAGGESGKEARVCNYDWVLDIRRQCVEAHVGFWFKQTGSYLLKDGHEYKVARQFQHSQARKAELNYTPEK | not soluble
15 | MRMIPIKIWAADVDVSIGYRAPRAASNTLGIFSYSAEYTLCTLPISNMTSQSVMFKGGLPADCTCPICEQALRDPIKLNCDHHYCRQCFENENRTPGCAACQTIIQPELCQHDRAKQKQILALPVVCTFESSGCPWDGQLGTLHDHLSECTFKSSLKCEKCGRQFAKNDLEKHRAKCELNRAVCSFCNKTIRDSDRERHPKTCPQVIISCPFQCGLTDRPRLEIEAHCPSCPNVDNVCPFVPYGCTFAGGKESIQQHLSDEPVRHLMYLCDEITDLKGTYELMERDMGSFNDRQTRILSAAETCTEMFGPQLIWKIDKLQQRTNEAKSGADTTIFSVPFMSHRFGYKMMACACLFGDGSSAGKSISLYVLLLKGEFDPTLEWPFHRAIKISLLDQNPRPEDRVNITYVIDPRKLKANEKFLARPRGERNAAFGSQSFCSLAILQNYVKDDKIYVQIDVDRCETLPVQLKSRDAKERKQMLDAMRAKTPDVRLHQVRPVTSQSSSAELRV | not soluble
16 | MSAISPFVAIRRDLHQIPELGFQELKTQQYLLRYIQSLPQERLQVRTWKTGIFVKVNGTSPRKTIGYRADMDGLPIREETGLPYRSKHEGHMHACGHDVHMSIALGVLTHFAHHPLEDDLLFVFQPAEEGPGGAKPMLESDIMREWKPDMIVALHIAPEYPVGTIATKEGLLFANTSELFIDLKGRGGHAAFPHLANDMVVAACALVTQLQSIVARNVDPLDSAVITIGKIAGGTVQNVIAEHARLEGTIRTLSTAAMQKVKRRIEAIVHGIEVAYECETSIDYGAMYHEVYNDPDLTAEFMKFAKAHGGVNVIRCKEAMTGEDFGYMLAEIPGFMFWLGVDSPYGLHHAKLAPNEEAIDRAIAFLIDYFSWKGNAE | not soluble
17 | MPLKPGANPYKILHLEKGCTDKEIQKAYRAQCLKWHPDKNLDNKEEAERRFIEAKEAFDFLYDKEKREEYDNREERIRMAQEHHSKRMAEADGKRKKLIEDLEKREKEFSNGGKRSADGSTPMTAAQQAKKKKTDQRNFKEEIEAIRRQLEKEVNEEVKQKATLMKTEREKHQKSQEKLTPRLLLKWKTSEGLDYSEDDIRKLFSTFGIISHISSAIEKKDRRKRILEFESGANAWGAELETGNAPMPEITCEWLQPPVETVKKASDEPVKSTNTGANNLEHMSLDDLEAQIMGGF | not soluble
18 | MGSDKIHHHHHHMSSVHAINQSYWFSTQLPHVESRTTRNSSHAYKTHSHAQFSIGAIEHGETLCHYRNETHHLQAGDLIFIDPQQPHSCNPPPGKMRSYHMLYLDTAWCLDQIAVHCNYQADSLRCNRVVLRDPTLFIRYQHLITLLHRGEITSADSLLNAMLTPVWQQYCLPEPALPHQALQTTTRHVRERLLNNLQESPSLETLADELNLRRETIVRQFRHDTGITPMAFLNNARIEYAKSLLKQGTPLVDTSYQSGFCDQSHFHKTFVQYTSATPGQYARSIFDNK | not soluble
19 | MAHHHHHHMNPNQPPRRKTAFNEEFDVMQAIQEDRMAYHASIACHERCVHNYFFNNFYWREKTCMDNCLDKINQATVITNINYGKFEDVESKK | not soluble
20 | MVGDGIAKFIPEGFDAQKIPSFAIEKEPREQGALPADWVLVPEFSLTDGKANASLTVPEGTSIYGGGEVTGSLLRNGKTIKLWNTDSGAYGVDKGTRLYQSHPWMMGVRKDGTAFGILFDTTWKAELSSTDEKIELKSEGIPFRVFIIDRESPQAVIRGLSELTGTMPMIPRWALGYQQCRFSYSPDSRVIEIADTFRLKRIPCDVIWMDIDYMDGYRIFTFNPKSFPNPKAVNRDLHIRGFHSAWMIDPGAKVDPNYFVYKSGTENDVWVKTADGKNFHGDAWPGAAAFPDFTSPKVNKWWRNLYKDFLAQGVDGVWNDVNEPQINDTPNKTMPEDNLHRGGGKLPAGTHLQYHNVYGFLMVKASREGILDARPEKRPFILTRSNFLGGQRYAATWTGDNGSCWDHLKMSVPMSLTLGLSGQPFSGADIGGFLFNADADLFGNWIGFGAFYPFARGHACAGTNNKEPWVFGQKVEDASRIALERRYILLPYFYTLLHEASTNGMPIMRPVFFSDPKDLSLRAEEEAFLVGDNLLIIPAFANQPALPKGIWKELSLVEGDQNDKYQAKMKIRGGAIIPTGKIIQNTTENSLDPLTLLVCLDEQGKASGNMYWDAGDGWSYKKGDYSLLQFVAERNGDKVTVKLTKKTGKYNTENKDMAVIKIITDQGIRQASGNLVEGIEIRL | not soluble
